Here are results for 2 molecules from patent publication US20110263830A1.

The experiment deals with c-Met receptor (human) (UniProt P08581). The experiment can be described thus: cell-based or functional assay.
Sequence of UniProt P08581 (P08581 25-1390): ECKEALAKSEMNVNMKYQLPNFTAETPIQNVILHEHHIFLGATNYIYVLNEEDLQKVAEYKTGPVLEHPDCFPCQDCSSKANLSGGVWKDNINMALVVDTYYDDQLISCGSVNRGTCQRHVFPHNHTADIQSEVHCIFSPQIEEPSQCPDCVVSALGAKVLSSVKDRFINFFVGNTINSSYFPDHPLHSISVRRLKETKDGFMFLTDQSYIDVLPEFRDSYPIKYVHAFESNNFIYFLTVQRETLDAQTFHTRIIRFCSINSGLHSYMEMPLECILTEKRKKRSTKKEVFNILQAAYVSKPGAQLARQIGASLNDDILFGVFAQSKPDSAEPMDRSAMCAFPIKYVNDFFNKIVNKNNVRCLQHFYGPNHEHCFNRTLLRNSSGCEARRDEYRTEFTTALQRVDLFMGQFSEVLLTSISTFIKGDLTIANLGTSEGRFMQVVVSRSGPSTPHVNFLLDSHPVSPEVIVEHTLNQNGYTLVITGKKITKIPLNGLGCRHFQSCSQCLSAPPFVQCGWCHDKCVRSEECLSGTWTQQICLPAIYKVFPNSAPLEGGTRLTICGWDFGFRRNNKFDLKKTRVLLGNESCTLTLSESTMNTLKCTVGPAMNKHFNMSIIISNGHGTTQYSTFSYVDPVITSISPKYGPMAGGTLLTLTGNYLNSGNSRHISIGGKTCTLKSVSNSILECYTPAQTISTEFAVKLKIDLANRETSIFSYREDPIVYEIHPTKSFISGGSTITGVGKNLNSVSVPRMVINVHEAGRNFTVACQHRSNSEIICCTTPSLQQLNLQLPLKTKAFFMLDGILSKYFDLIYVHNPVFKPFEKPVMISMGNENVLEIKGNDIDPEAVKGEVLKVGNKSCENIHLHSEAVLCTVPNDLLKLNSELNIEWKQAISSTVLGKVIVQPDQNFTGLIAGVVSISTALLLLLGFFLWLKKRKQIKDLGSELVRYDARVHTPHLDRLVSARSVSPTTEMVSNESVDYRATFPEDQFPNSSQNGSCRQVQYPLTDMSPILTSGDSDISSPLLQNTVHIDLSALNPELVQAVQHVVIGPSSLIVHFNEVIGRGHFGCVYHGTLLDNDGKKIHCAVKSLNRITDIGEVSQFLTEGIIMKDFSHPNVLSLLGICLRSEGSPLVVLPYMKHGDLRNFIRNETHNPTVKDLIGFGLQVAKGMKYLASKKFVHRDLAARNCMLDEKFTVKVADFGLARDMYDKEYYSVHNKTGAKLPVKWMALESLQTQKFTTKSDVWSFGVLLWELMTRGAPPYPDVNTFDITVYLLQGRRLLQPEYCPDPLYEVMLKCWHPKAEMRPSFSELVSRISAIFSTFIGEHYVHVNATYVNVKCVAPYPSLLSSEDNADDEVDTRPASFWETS

B1: murine 11E1 Mab (antibody, from another filing, mouse IgG1, V domains shown)
VH: QVQLQQSGAELAKPGASVKMSCKASGYTFTSYWMNWVKQRPGQGLEWIGYINPTTGSTDYNQKLKDKATLTADKSSNTAYMQLSSLTSEDSAVYYCAIGGYGSWFAYWGQGTLVTVSA
VL: QIVLTQSPAIMSASPGEKVTLTCSASSSVSSTYLYWYQQKPGSSPKLWIYTTSILASGVPARFSGSGSGTSYSLTISSMETEDAASYFCHQWSSYPFTFGSGTKLDIK
Regarding B1, the agonist effect on c-Met receptor phosphorylation, A549 cells (phospho-c-Met ELISA) (% of HGF effect) is less than 5; the inhibition of HGF [100 ng/ml]-induced c-Met receptor phosphorylation, A549 cells (% inhibition of HGF effect) was more than 70; the inhibition of HGF-induced proliferation of NCI-H441 cells ([3H]Thymidine) worked out at 80 % inhibition.

B2: murine 227H1 Mab (antibody, from another filing, mouse IgG1, V domains shown)
VH: EVQLQQSGPELVKPGASMKISCKASGYSFTDYTLNWVKQSHGKTLEWIGLINPYNGGTTYNQKFKGKATLTVDKSSSTAYMELLSLTSEDSAVYYCAREEITKDFDFWGQGTTLTVSS
VL: GIVLTQSPASLAVSLGQRATISCRVSESIDTYGNSFIHWYQQKPGQPPKLLIYRASNLESGIPARFSGSGSRTDFTLTINPVEADDSATYYCQQSNEDPFTFGSGTKLEMK
In the case of B2, the agonist effect on c-Met receptor phosphorylation, A549 cells (phospho-c-Met ELISA) (% of HGF effect) was less than 5; the inhibition of HGF [100 ng/ml]-induced c-Met receptor phosphorylation, A549 cells (% inhibition of HGF effect) was more than 70; the inhibition of HGF-induced proliferation of NCI-H441 cells ([3H]Thymidine) was 80 % inhibition.
